# Measured values as given in FireProtDB (doi:10.1021/bi00093a001).
# B1: Subtilisin-chymotrypsin inhibitor-2A, P01053 (parent)
# chain: MSSVEKKPEGVNTGAGDRHNLKTEWPELVGKSVEEAKKVILQDKPEAQIIVLPVGTIVTMEYRIDRVRLFVDKLDNIAQVPRVG
# Variants of: B1
# Settings: Hordeum vulgare, MES 450 mM, reversible: yes, structure 2CI2, whole UniProt chain shown; for ddG of mutation (higher = less stable) / heat capacity change of unfolding / denaturant m value / denaturant midpoint (higher = more stable) / unfolding free energy: 25 °C
variant,measurement,setting,value
V39A,ddG of mutation (higher = less stable),"pH 3, Thermal, DSC",0.46 kcal/mol
same,heat capacity change of unfolding,"pH 3, Thermal, DSC",0.72 kcal/mol/K
same,Tm,"pH 3, Thermal, DSC",61.1 °C
same,"change of melting temperature, mutant - wild type (higher = more stable)","pH 3, Thermal, DSC",-2.9 °C
same,unfolding enthalpy (calorimetric),"pH 3, Thermal, DSC",58.5 kcal/mol
same,unfolding enthalpy (van 't Hoff),"pH 3, Thermal, DSC",58.6 kcal/mol
same,ddG of mutation (higher = less stable),"pH 6.3, GdnHCl, Fluorescence",0 kcal/mol
same,denaturant m value,"pH 6.3, GdnHCl, Fluorescence",2.01 kcal/mol/M
same,denaturant midpoint (higher = more stable),"pH 6.3, GdnHCl, Fluorescence",3.75 M
same,unfolding free energy,"pH 6.3, GdnHCl, Fluorescence",7.54 kcal/mol
I40V,ddG of mutation (higher = less stable),"pH 3, Thermal, DSC",1.2 kcal/mol
same,heat capacity change of unfolding,"pH 3, Thermal, DSC",0.72 kcal/mol/K
same,Tm,"pH 3, Thermal, DSC",57.7 °C
same,"change of melting temperature, mutant - wild type (higher = more stable)","pH 3, Thermal, DSC",-6.3 °C
same,unfolding enthalpy (calorimetric),"pH 3, Thermal, DSC",53.7 kcal/mol
same,unfolding enthalpy (van 't Hoff),"pH 3, Thermal, DSC",54.8 kcal/mol
same,Tm,"pH 3.5, Thermal, DSC",67.3 °C
same,"change of melting temperature, mutant - wild type (higher = more stable)","pH 3.5, Thermal, DSC",-6.5 °C
same,unfolding enthalpy (calorimetric),"pH 3.5, Thermal, DSC",61.5 kcal/mol
same,unfolding enthalpy (van 't Hoff),"pH 3.5, Thermal, DSC",62.5 kcal/mol
same,ddG of mutation (higher = less stable),"pH 6.3, GdnHCl, Fluorescence",0.91 kcal/mol
same,denaturant m value,"pH 6.3, GdnHCl, Fluorescence",1.99 kcal/mol/M
same,denaturant midpoint (higher = more stable),"pH 6.3, GdnHCl, Fluorescence",3.33 M
same,unfolding free energy,"pH 6.3, GdnHCl, Fluorescence",6.63 kcal/mol
I49A I77V,ddG of mutation (higher = less stable),"pH 3.5, Thermal, DSC",4.69 kcal/mol
same,heat capacity change of unfolding,"pH 3.5, Thermal, DSC",0.72 kcal/mol/K
same,ddG of mutation (higher = less stable),"pH 6.3, GdnHCl, Fluorescence",4.08 kcal/mol
same,denaturant m value,"pH 6.3, GdnHCl, Fluorescence",1.83 kcal/mol/M
same,denaturant midpoint (higher = more stable),"pH 6.3, GdnHCl, Fluorescence",1.9 M
same,unfolding free energy,"pH 6.3, GdnHCl, Fluorescence",3.46 kcal/mol
L28A,Tm,"pH 3, Thermal, DSC",48.5 °C
same,"change of melting temperature, mutant - wild type (higher = more stable)","pH 3, Thermal, DSC",-15.5 °C
same,unfolding enthalpy (calorimetric),"pH 3, Thermal, DSC",45 kcal/mol
same,unfolding enthalpy (van 't Hoff),"pH 3, Thermal, DSC",44.4 kcal/mol
same,ddG of mutation (higher = less stable),"pH 6.3, GdnHCl, Fluorescence",1.91 kcal/mol
same,denaturant m value,"pH 6.3, GdnHCl, Fluorescence",2.15 kcal/mol/M
same,denaturant midpoint (higher = more stable),"pH 6.3, GdnHCl, Fluorescence",2.62 M
same,unfolding free energy,"pH 6.3, GdnHCl, Fluorescence",5.63 kcal/mol
I49V,ddG of mutation (higher = less stable),"pH 3.5, Thermal, DSC",0.92 kcal/mol
same,heat capacity change of unfolding,"pH 3.5, Thermal, DSC",0.72 kcal/mol/K
same,Tm,"pH 3.5, Thermal, DSC",69.1 °C
same,"change of melting temperature, mutant - wild type (higher = more stable)","pH 3.5, Thermal, DSC",-4.7 °C
same,unfolding enthalpy (calorimetric),"pH 3.5, Thermal, DSC",62.4 kcal/mol
same,unfolding enthalpy (van 't Hoff),"pH 3.5, Thermal, DSC",61.6 kcal/mol
same,ddG of mutation (higher = less stable),"pH 6.3, GdnHCl, Fluorescence",0.75 kcal/mol
same,denaturant m value,"pH 6.3, GdnHCl, Fluorescence",1.99 kcal/mol/M
same,denaturant midpoint (higher = more stable),"pH 6.3, GdnHCl, Fluorescence",3.43 M
same,unfolding free energy,"pH 6.3, GdnHCl, Fluorescence",6.8 kcal/mol
I49A,ddG of mutation (higher = less stable),"pH 3.5, Thermal, DSC",3.89 kcal/mol
same,heat capacity change of unfolding,"pH 3.5, Thermal, DSC",0.72 kcal/mol/K
same,Tm,"pH 3.5, Thermal, DSC",52.5 °C
same,"change of melting temperature, mutant - wild type (higher = more stable)","pH 3.5, Thermal, DSC",-21.3 °C
same,unfolding enthalpy (calorimetric),"pH 3.5, Thermal, DSC",44.9 kcal/mol
same,unfolding enthalpy (van 't Hoff),"pH 3.5, Thermal, DSC",46.9 kcal/mol
same,ddG of mutation (higher = less stable),"pH 6.3, GdnHCl, Fluorescence",3.4 kcal/mol
same,denaturant m value,"pH 6.3, GdnHCl, Fluorescence",2.07 kcal/mol/M
same,denaturant midpoint (higher = more stable),"pH 6.3, GdnHCl, Fluorescence",2 M
same,unfolding free energy,"pH 6.3, GdnHCl, Fluorescence",4.14 kcal/mol
I77A,ddG of mutation (higher = less stable),"pH 3, Thermal, DSC",4.23 kcal/mol
same,heat capacity change of unfolding,"pH 3, Thermal, DSC",0.72 kcal/mol/K
same,Tm,"pH 3, Thermal, DSC",38.3 °C
same,"change of melting temperature, mutant - wild type (higher = more stable)","pH 3, Thermal, DSC",-25.7 °C
same,unfolding enthalpy (calorimetric),"pH 3, Thermal, DSC",30.2 kcal/mol
same,unfolding enthalpy (van 't Hoff),"pH 3, Thermal, DSC",37.2 kcal/mol
same,ddG of mutation (higher = less stable),"pH 3.5, Thermal, DSC",4.34 kcal/mol
same,heat capacity change of unfolding,"pH 3.5, Thermal, DSC",0.72 kcal/mol/K
same,Tm,"pH 3.5, Thermal, DSC",50.3 °C
same,"change of melting temperature, mutant - wild type (higher = more stable)","pH 3.5, Thermal, DSC",-23.5 °C
same,unfolding enthalpy (calorimetric),"pH 3.5, Thermal, DSC",41 kcal/mol
same,unfolding enthalpy (van 't Hoff),"pH 3.5, Thermal, DSC",46.8 kcal/mol
same,ddG of mutation (higher = less stable),"pH 6.3, GdnHCl, Fluorescence",4.09 kcal/mol
same,denaturant m value,"pH 6.3, GdnHCl, Fluorescence",1.93 kcal/mol/M
same,denaturant midpoint (higher = more stable),"pH 6.3, GdnHCl, Fluorescence",1.79 M
same,unfolding free energy,"pH 6.3, GdnHCl, Fluorescence",3.45 kcal/mol
I77V,ddG of mutation (higher = less stable),"pH 3, Thermal, DSC",-0.09 kcal/mol
same,heat capacity change of unfolding,"pH 3, Thermal, DSC",0.72 kcal/mol/K
same,Tm,"pH 3, Thermal, DSC",65.4 °C
same,"change of melting temperature, mutant - wild type (higher = more stable)","pH 3, Thermal, DSC",1.4 °C
same,unfolding enthalpy (calorimetric),"pH 3, Thermal, DSC",60.5 kcal/mol
same,unfolding enthalpy (van 't Hoff),"pH 3, Thermal, DSC",60.5 kcal/mol
L69A,ddG of mutation (higher = less stable),"pH 3.5, Thermal, DSC",3.74 kcal/mol
same,heat capacity change of unfolding,"pH 3.5, Thermal, DSC",0.72 kcal/mol/K
same,Tm,"pH 3.5, Thermal, DSC",52.3 °C
same,"change of melting temperature, mutant - wild type (higher = more stable)","pH 3.5, Thermal, DSC",-21.5 °C
same,unfolding enthalpy (calorimetric),"pH 3.5, Thermal, DSC",46.7 kcal/mol
same,unfolding enthalpy (van 't Hoff),"pH 3.5, Thermal, DSC",46.9 kcal/mol
same,ddG of mutation (higher = less stable),"pH 6.3, GdnHCl, Fluorescence",3.56 kcal/mol
same,denaturant m value,"pH 6.3, GdnHCl, Fluorescence",1.98 kcal/mol/M
same,denaturant midpoint (higher = more stable),"pH 6.3, GdnHCl, Fluorescence",2.01 M
same,unfolding free energy,"pH 6.3, GdnHCl, Fluorescence",3.98 kcal/mol
V71A,ddG of mutation (higher = less stable),"pH 3, Thermal, DSC",2.17 kcal/mol
same,heat capacity change of unfolding,"pH 3, Thermal, DSC",0.72 kcal/mol/K
same,Tm,"pH 3, Thermal, DSC",51.3 °C
same,"change of melting temperature, mutant - wild type (higher = more stable)","pH 3, Thermal, DSC",-12.7 °C
same,unfolding enthalpy (calorimetric),"pH 3, Thermal, DSC",48.5 kcal/mol
same,unfolding enthalpy (van 't Hoff),"pH 3, Thermal, DSC",49.7 kcal/mol
same,ddG of mutation (higher = less stable),"pH 6.3, GdnHCl, Fluorescence",1.13 kcal/mol
same,denaturant m value,"pH 6.3, GdnHCl, Fluorescence",2.15 kcal/mol/M
same,denaturant midpoint (higher = more stable),"pH 6.3, GdnHCl, Fluorescence",2.98 M
same,unfolding free energy,"pH 6.3, GdnHCl, Fluorescence",6.41 kcal/mol
V67A,Tm,"pH 3.5, Thermal, DSC",45.3 °C
same,"change of melting temperature, mutant - wild type (higher = more stable)","pH 3.5, Thermal, DSC",-28.5 °C
same,unfolding enthalpy (calorimetric),"pH 3.5, Thermal, DSC",37.3 kcal/mol
same,unfolding enthalpy (van 't Hoff),"pH 3.5, Thermal, DSC",35.8 kcal/mol
same,ddG of mutation (higher = less stable),"pH 6.3, GdnHCl, Fluorescence",4.97 kcal/mol
same,denaturant m value,"pH 6.3, GdnHCl, Fluorescence",1.76 kcal/mol/M
same,denaturant midpoint (higher = more stable),"pH 6.3, GdnHCl, Fluorescence",1.46 M
same,unfolding free energy,"pH 6.3, GdnHCl, Fluorescence",2.57 kcal/mol
